IntAct's records for PubMed 20059542

B1: 26S proteasome non-ATPase regulatory subunit 4 (Homo sapiens), P55036 (parent)
chain: MVLESTMVCVDNSEYMRNGDFLPTRLQAQQDAVNIVCHSKTRSNPENNVGLITLANDCEVLTTLTPDTGRILSKLHTVQPKGKITFCTGIRVAHLALKHRQGKNHKMRIIAFVGSPVEDNEKDLVKLAKRLKKEKVNVDIINFGEEEVNTEKLTAFVNTLNGKDGTGSHLVTVPPGPSLADALISSPILAGEGGAMLGLGASDFEFGVDPSADPELALALRVSMEEQRQRQEEEARRAAAASAAEAGIATTGTEDSDDALLKMTISQQEFGRTGLPDLSSMTEEEQIAYAMQMSLQGAEFGQAESADIDASSAMDTSEPAKEEDDYDVMQDPEFLQSVLENLPGVDPNNEAIRNAMGSLASQATKDGKKDKKEEDKK
B2: Ubiquitin domain-containing protein DSK2 (Saccharomyces cerevisiae), P48510 (parent)
chain: MSLNIHIKSGQDKWEVNVAPESTVLQFKEAINKANGIPVANQRLIYSGKILKDDQTVESYHIQDGHSVHLVKSQPKPQTASAAGANNATATGAAAGTGATPNMSSGQSAGFNPLADLTSARYAGYLNMPSADMFGPDGGALNNDSNNQDELLRMMENPIFQSQMNEMLSNPQMLDFMIQSNPQLQAMGPQARQMLQSPMFRQMLTNPDMIRQSMQFARMMDPNAGMGSAGGAASAFPAPGGDAPEEGSNTNTTSSSNTGNNAGTNAGTNAGANTAANPFASLLNPALNPFANAGNAASTGMPAFDPALLASMFQPPVQASQAEDTRPPEERYEHQLRQLNDMGFFDFDRNVAALRRSGGSVQGALDSLLNGDV
partner: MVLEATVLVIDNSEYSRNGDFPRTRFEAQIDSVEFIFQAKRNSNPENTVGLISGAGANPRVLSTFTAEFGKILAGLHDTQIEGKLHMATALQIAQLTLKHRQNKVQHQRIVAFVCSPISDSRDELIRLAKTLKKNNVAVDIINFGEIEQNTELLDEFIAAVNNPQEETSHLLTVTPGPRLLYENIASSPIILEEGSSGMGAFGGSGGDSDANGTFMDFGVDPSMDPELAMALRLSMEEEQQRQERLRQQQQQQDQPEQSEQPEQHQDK

Variants of: B1
Conditions: with ubql1_human UBQLN1, Q9UMX0
Chain of ubql1_human UBQLN1, Q9UMX0 (Q9UMX0 whole entry): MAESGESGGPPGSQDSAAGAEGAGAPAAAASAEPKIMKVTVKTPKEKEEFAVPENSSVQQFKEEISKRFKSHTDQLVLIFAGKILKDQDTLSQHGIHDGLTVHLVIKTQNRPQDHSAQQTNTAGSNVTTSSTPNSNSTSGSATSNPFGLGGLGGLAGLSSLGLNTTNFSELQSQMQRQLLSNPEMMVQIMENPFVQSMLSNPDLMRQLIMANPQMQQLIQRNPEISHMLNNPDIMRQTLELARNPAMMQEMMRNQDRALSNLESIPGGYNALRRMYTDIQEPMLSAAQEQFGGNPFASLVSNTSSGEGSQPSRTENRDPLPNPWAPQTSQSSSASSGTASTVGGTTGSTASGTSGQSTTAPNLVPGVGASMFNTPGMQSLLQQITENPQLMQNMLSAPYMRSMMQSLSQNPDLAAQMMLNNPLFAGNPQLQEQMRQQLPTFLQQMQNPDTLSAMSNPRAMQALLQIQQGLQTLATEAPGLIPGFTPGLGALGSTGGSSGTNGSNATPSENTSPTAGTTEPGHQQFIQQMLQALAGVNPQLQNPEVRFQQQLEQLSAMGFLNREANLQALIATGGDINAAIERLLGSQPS

effect of a mutation on the interaction	Variant
disrupting interaction strength	MVLESTMVCVDNSEYMRNGDFLPTRLQAQQDAVNIVCHSKTRSNPENNVGLITLANDCEVLTTLTPDTGRILSKLHTVQPKGKITFCTGIRVAHLALKHRQGKNHKMRIIAFVGSPVEDNEKDLVKLAKRLKKEKVNVDIINFGEEEVNTEKLTAFVNTLNGKDGTGSHLVTVPPGPSLADALISSPILAGEGGAMLGLGASDFEFGVDPSADPELALALRVSMEEQRQRQEEEARRAAAASAAEAGIATTGTEDSDDALLKMTISQQEFGRTGLPDLSSMTEEEQNNNNNQMSLQGAEFGQAESADIDASSAMDTSEPAKEEDDYDVMQDPEFLQSVLENLPGVDPNNEAIRNAMGSLASQATKDGKKDKKEEDKK [I287N;A288N;Y289N;A290N;M291N]

Variants of: B1
Conditions: with ubql2_human UBQLN2, Q9UHD9
Chain of ubql2_human UBQLN2, Q9UHD9 (Q9UHD9 whole entry): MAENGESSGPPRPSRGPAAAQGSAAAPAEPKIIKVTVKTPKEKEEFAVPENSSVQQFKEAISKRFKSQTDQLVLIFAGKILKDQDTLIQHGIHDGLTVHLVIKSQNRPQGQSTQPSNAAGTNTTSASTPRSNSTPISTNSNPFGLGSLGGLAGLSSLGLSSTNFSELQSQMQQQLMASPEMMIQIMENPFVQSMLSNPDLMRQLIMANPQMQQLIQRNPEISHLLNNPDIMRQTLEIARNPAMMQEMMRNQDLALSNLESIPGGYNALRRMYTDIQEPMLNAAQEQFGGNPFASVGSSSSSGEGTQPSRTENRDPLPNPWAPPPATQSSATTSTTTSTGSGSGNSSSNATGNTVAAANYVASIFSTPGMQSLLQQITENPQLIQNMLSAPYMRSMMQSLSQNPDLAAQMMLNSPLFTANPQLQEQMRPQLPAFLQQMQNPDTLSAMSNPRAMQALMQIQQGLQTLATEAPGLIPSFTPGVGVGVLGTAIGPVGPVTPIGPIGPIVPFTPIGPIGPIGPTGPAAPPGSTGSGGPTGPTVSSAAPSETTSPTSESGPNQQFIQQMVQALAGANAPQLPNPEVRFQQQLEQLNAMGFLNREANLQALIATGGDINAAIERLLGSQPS

effect of a mutation on the interaction	Variant
disrupting interaction strength	MVLESTMVCVDNSEYMRNGDFLPTRLQAQQDAVNIVCHSKTRSNPENNVGLITLANDCEVLTTLTPDTGRILSKLHTVQPKGKITFCTGIRVAHLALKHRQGKNHKMRIIAFVGSPVEDNEKDLVKLAKRLKKEKVNVDIINFGEEEVNTEKLTAFVNTLNGKDGTGSHLVTVPPGPSLADALISSPILAGEGGAMLGLGASDFEFGVDPSADPELALALRVSMEEQRQRQEEEARRAAAASAAEAGIATTGTEDSDDALLKMTISQQEFGRTGLPDLSSMTEEEQNNNNNQMSLQGAEFGQAESADIDASSAMDTSEPAKEEDDYDVMQDPEFLQSVLENLPGVDPNNEAIRNAMGSLASQATKDGKKDKKEEDKK [I287N;A288N;Y289N;A290N;M291N]

Variants of: B1
Conditions: with dsk2_yeast DSK2, P48510

effect of a mutation on the interaction	Variant
with no effect	MVLESTMVCVDNSEYMRNGDFLPTRLQAQQDAVNIVCHSKTRSNPENNVGLITLANDCEVLTTLTPDTGRILSKLHTVQPKGKITFCTGIRVAHLALKHRQGKNHKMRIIAFVGSPVEDNEKDLVKLAKRLKKEKVNVDIINFGEEEVNTEKLTAFVNTLNGKDGTGSHLVTVPPGPSLADALISSPILAGEGGAMLGLGASDFEFGVDPSADPELALALRVSMEEQRQRQEEEARRAAAASAAEAGIATTGTEDSDDALLKMTISQQEFGRTGLPDLSSMTEEEQNNNNNQMSLQGAEFGQAESADIDASSAMDTSEPAKEEDDYDVMQDPEFLQSVLENLPGVDPNNEAIRNAMGSLASQATKDGKKDKKEEDKK [I287N;A288N;Y289N;A290N;M291N]

Variants of: B1
Conditions: with rd23b_human RAD23B

effect of a mutation on the interaction	Variant
disrupting interaction strength	MVLESTMVCVDNSEYMRNGDFLPTRLQAQQDAVNIVCHSKTRSNPENNVGLITLANDCEVLTTLTPDTGRILSKLHTVQPKGKITFCTGIRVAHLALKHRQGKNHKMRIIAFVGSPVEDNEKDLVKLAKRLKKEKVNVDIINFGEEEVNTEKLTAFVNTLNGKDGTGSHLVTVPPGPSLADALISSPILAGEGGAMLGLGASDFEFGVDPSADPELALALRVSMEEQRQRQEEEARRAAAASAAEAGIATTGTEDSDDALLKMTISQQEFGRTGLPDLSSMTEEEQNNNNNQMSLQGAEFGQAESADIDASSAMDTSEPAKEEDDYDVMQDPEFLQSVLENLPGVDPNNEAIRNAMGSLASQATKDGKKDKKEEDKK [I287N;A288N;Y289N;A290N;M291N]

Variants of: B2
Conditions: with rpn10_yeast RPN10, P38886

effect of a mutation on the interaction	Variant
disrupting interaction strength	MSLNIHIKSGQDKWEVNVAPESTVLQFKEAINKANGIPVANQRAAYSGKILKDDQTVESYHIQDGHSVHLVKSQPKPQTASAAGANNATATGAAAGTGATPNMSSGQSAGFNPLADLTSARYAGYLNMPSADMFGPDGGALNNDSNNQDELLRMMENPIFQSQMNEMLSNPQMLDFMIQSNPQLQAMGPQARQMLQSPMFRQMLTNPDMIRQSMQFARMMDPNAGMGSAGGAASAFPAPGGDAPEEGSNTNTTSSSNTGNNAGTNAGTNAGANTAANPFASLLNPALNPFANAGNAASTGMPAFDPALLASMFQPPVQASQAEDTRPPEERYEHQLRQLNDMGFFDFDRNVAALRRSGGSVQGALDSLLNGDV [L44A;I45A]
with no effect	MSLNIHIKSGQDKWEVNVAPESTVLQFKEAINKANGIPVANQRAIYSGKILKDDQTVESYHIQDGHSVHLVKSQPKPQTASAAGANNATATGAAAGTGATPNMSSGQSAGFNPLADLTSARYAGYLNMPSADMFGPDGGALNNDSNNQDELLRMMENPIFQSQMNEMLSNPQMLDFMIQSNPQLQAMGPQARQMLQSPMFRQMLTNPDMIRQSMQFARMMDPNAGMGSAGGAASAFPAPGGDAPEEGSNTNTTSSSNTGNNAGTNAGTNAGANTAANPFASLLNPALNPFANAGNAASTGMPAFDPALLASMFQPPVQASQAEDTRPPEERYEHQLRQLNDMGFFDFDRNVAALRRSGGSVQGALDSLLNGDV [L44A]
with no effect	MSLNIHIKSGQDKWEVNVAPESTVLQFKEAINKANGIPVANQRLIYSGKILKDDQTVESYHIQDGHSVHAVKSQPKPQTASAAGANNATATGAAAGTGATPNMSSGQSAGFNPLADLTSARYAGYLNMPSADMFGPDGGALNNDSNNQDELLRMMENPIFQSQMNEMLSNPQMLDFMIQSNPQLQAMGPQARQMLQSPMFRQMLTNPDMIRQSMQFARMMDPNAGMGSAGGAASAFPAPGGDAPEEGSNTNTTSSSNTGNNAGTNAGTNAGANTAANPFASLLNPALNPFANAGNAASTGMPAFDPALLASMFQPPVQASQAEDTRPPEERYEHQLRQLNDMGFFDFDRNVAALRRSGGSVQGALDSLLNGDV [L70A]
with no effect	I45A

Variants of: B2
Conditions: with rpn10_yeast RPN10, P38886
Remark: another data set of the same source

effect of a mutation on the interaction	Variant
disrupting interaction	MSLNIHIKSGQDKWEVNVAPESTVLQFKEAINKANGIPVANQRLIYSGKILKDDQTVESYHIQDGHSVHAVKSQPKPQTASAAGANNATATGAAAGTGATPNMSSGQSAGFNPLADLTSARYAGYLNMPSADMFGPDGGALNNDSNNQDELLRMMENPIFQSQMNEMLSNPQMLDFMIQSNPQLQAMGPQARQMLQSPMFRQMLTNPDMIRQSMQFARMMDPNAGMGSAGGAASAFPAPGGDAPEEGSNTNTTSSSNTGNNAGTNAGTNAGANTAANPFASLLNPALNPFANAGNAASTGMPAFDPALLASMFQPPVQASQAEDTRPPEERYEHQLRQLNDMGFFDFDRNVAALRRSGGSVQGALDSLLNGDV [L70A]
